We go through one molecule from patent US12135332B2, “Mutant human estrogen receptor-α and methods of use thereof” (Case Western Reserve University, priority 2018, dated 2024).

For this test, the target named is ERE-DNA. The test can be described thus: Fluorescence anisotropy DNA-binding assay. The following applies: 6-FAM-labeled ERE-DNA 20 nM, E2-bound hERα^CDE; read-out: DNA-binding affinity Kd. The source says:
FIGS. 8(a)-(e) are graphs relating to the purification and characterization of recombinant hERα. […] FIGS. 8(b) and (c) show the purification of hERα^CDE, specifically size exclusion chromatography of hERα^CDE in the absence (b) or presence (c) of ERE-DNA. Shown are the absorbance at 260 nm and 280 nm of hERα^CDE in the presence of estradiol and a coactivator TIF2 peptide. […] Data of 2.8-μM hERα^CDE in the presence of E2 were used as a saturation level and free 20-nM DNA data as a baseline. […] The binding of the hERα to a coactivator TIF2 peptide (sequence […]) (SEQ ID NO: 2) in the presence of E2 and ERE-DNA was measured by surface plasmon resonance (SPR). […]
To further assess the impact of this substitution on the receptor's ability to bind ERE-DNA, a biochemical DNA-binding assay was performed by detecting fluorescence anisotropy of 6-carboxyfluorescein-labeled ERE-DNA in the presence of increasing concentrations of the E2-bound hERα^CDE. […]
The fluorescence-conjugated double-strand ERE-DNA was prepared by annealing 6-FAM (6-carboxyfluorescein) 5′-labeled strands (5′-[…]-3′ (SEQ ID NO: 44) and 5′-[…]-3′ (SEQ ID NO: 45); IDT, Inc) in a buffer containing 10 mM CHES (pH 9.5), 50 mM KCl, 50 mM NaCl, 4 mM MgCl2, 50 mM arginine, 50 mM glutamic acid, 5 mM TCEP, 5% glycerol with 10 μM ZnCl2, and 10 μM E2. […]
For orientation: Polarisation of emitted light reports the rotation of a fluorescent probe.

B1: WT: recombinant wild-type human ERα segment with DBD and LBD, residues E181-P552 (protein)
chain: ETRYCAVCNDYASGYHYGVWSCEGCKAFFKRSIQGHNDYMCPATNQCTIDKNRRKSCQACRLRKCYEVGMMKGGIRKDRRGGRMLKHKRQRDDGEGRGEVGSAGDMRAANLWPSPLMIKRSKKNSLALSLTADQMVSALLDAEPPILYSEYDPTRPFSEASMMGLLTNLADRELVHMINWAKRVPGFVDLTLHDQVHLLECAWLEILMIGLVWRSMEHPGKLLFAPNLLLDRNQGKCVEGMVEIFDMLLATSSRFRMMNLQGEEFVCLKSIILLNSGVYTFLSSTLKSLEEKDHIHRVLDKITDTLIHLMAKAGLTLQQQHQRLAQLLLILSHIRHMSNKGMEHLYSMKCKNVVPLYDLLLEMLDAHRLHAP
In general, Kd refers to the constant that tells how readily two partners part at equilibrium. B1: the Kd came to 9.2 nM.
